Test results published in publication PMC4784663.

Target: Chicken Best1 residues 1–405 (GgBest1) (chicken)
Assay: crystal structure; GgBest1–Fab complex, hanging-drop vapour diffusion; P2_1 form in CYMAL-6 or CYMAL-6-NG, 0–60 mM NaCl, 50 mM sodium acetate pH 4.0, 5% PEG 4000, 20% glycerol; C2 form in DM, 120 mM NaCl, 50 mM Tris pH 8.5, 8.5% PEG 4000, 20% glycerol; sample supplemented with 50 mM GABA

stoichiometry N: 5
Substance: Chicken Best1 residues 1–405 (GgBest1) (domain or fragment)
